From the supplement of paper PMC9112550, “Optimization of the antimicrobial peptide Bac7 by deep mutational scanning” (BMC Biology, 2022) come the findings set out here.

The test system of this series is Escherichia coli TOP10. The experiment in a line: shrunken log2 fold change of peptide-encoding DNA abundance (4.5 h post-induction vs induction); higher = less antimicrobial activity (less host growth inhibition). The following applies: time post-induction: 4.5 h; library: site-saturation at positions 5, 18, 19, 20.
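Note: peptides expressed intracellularly from a pBAD plasmid library in pooled LB shake-flask culture, induced with 0.3% L-arabinose, DNA abundance read by NGS, three biological replicates, DESeq2 with apeglm shrinkage.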

As for RRIRRRPPRLPRPRPRPTELPRP, the “shrunken log2 fold change” value was 0.42.
RRIRNRPPRLPRPRPRPAWQPRP: the “shrunken log2 fold change” value is -0.0152.
Take RRIRIRPPRLPRPRPRPWQAPRP: the “shrunken log2 fold change” value is -0.115.
The same measure for RRIRGRPPRLPRPRPRPRHIPRP: 0.192; for RRIRERPPRLPRPRPRPNYPPRP: -0.509; for RRIRERPPRLPRPRPRPMHSPRP: 0.0314.
In the case of RRIRGRPPRLPRPRPRPENQPRP, the “shrunken log2 fold change” value was 0.534.
The same measure for RRIRRRPPRLPRPRPRPCTYPRP: -0.27; for RRIRTRPPRLPRPRPRPQRAPRP: 0.265; for RRIRMRPPRLPRPRPRPMITPRP: -0.0461.
The same measure for RRIRNRPPRLPRPRPRPMHKPRP: -0.131.
As to RRIRSRPPRLPRPRPRPWREPRP, the “shrunken log2 fold change” value is 0.0924.
The same measure for RRIRKRPPRLPRPRPRPMRAPRP: 1.23; for RRIRTRPPRLPRPRPRPVGGPRP: 0.837; for RRIRWRPPRLPRPRPRPAIPPRP: 0.332.
The same measure for RRIRGRPPRLPRPRPRPQQWPRP: 0.067; for RRIRNRPPRLPRPRPRPTCVPRP: -0.185; for RRIRARPPRLPRPRPRPTRQPRP: 0.982.
The same measure for RRIRHRPPRLPRPRPRPFKMPRP: -0.274; for RRIRSRPPRLPRPRPRPIFAPRP: 0.192.
For RRIRSRPPRLPRPRPRPHWHPRP, the “shrunken log2 fold change” value was -0.124.
The same measure for RRIRRRPPRLPRPRPRPHAAPRP: 0.837.
For RRIRIRPPRLPRPRPRPEKHPRP, the “shrunken log2 fold change” value was -0.106.
The same measure for RRIRVRPPRLPRPRPRPPLDPRP: 0.433; for RRIRTRPPRLPRPRPRPRTPPRP: 0.138; for RRIRQRPPRLPRPRPRPRQQPRP: -0.0145.
The same measure for RRIRCRPPRLPRPRPRPYCGPRP: -0.888; for RRIRCRPPRLPRPRPRPTEKPRP: -0.293; for RRIRGRPPRLPRPRPRPWMMPRP: -0.0114.
The same measure for RRIRGRPPRLPRPRPRPHIPPRP: -0.101; for RRIRDRPPRLPRPRPRPEENPRP: 1.11; for RRIRVRPPRLPRPRPRPPFKPRP: 0.163.
Consider RRIRFRPPRLPRPRPRPPMAPRP, for which the “shrunken log2 fold change” value worked out at 0.277.
The same measure for RRIRIRPPRLPRPRPRPFNSPRP: -0.384.
RRIRIRPPRLPRPRPRPEDLPRP: the “shrunken log2 fold change” value is -0.00555.
The same measure for RRIRDRPPRLPRPRPRPIRRPRP: -0.00194.
The same measure for RRIRIRPPRLPRPRPRPGEAPRP: -0.0281.
The same measure for RRIRIRPPRLPRPRPRPHESPRP: 0.0539.
As for RRIRKRPPRLPRPRPRPAEWPRP, the “shrunken log2 fold change” value was found to be 0.0965.
On to RRIRGRPPRLPRPRPRPNMEPRP, for which the “shrunken log2 fold change” value stood at 0.22.
The same measure for RRIRFRPPRLPRPRPRPPPDPRP: 1.3; for RRIRVRPPRLPRPRPRPVVRPRP: 0.129.
The same measure for RRIRKRPPRLPRPRPRPEYGPRP: 0.087.
The same measure for RRIRFRPPRLPRPRPRPEQGPRP: 0.313; for RRIRPRPPRLPRPRPRPVYAPRP: -0.261; for RRIRDRPPRLPRPRPRPWLDPRP: 0.0593.
As to RRIRVRPPRLPRPRPRPVGVPRP, the “shrunken log2 fold change” value came to 0.321.
The same measure for RRIRFRPPRLPRPRPRPIWDPRP: -0.319.
The same measure for RRIRSRPPRLPRPRPRPWTAPRP: -0.22.
The same measure for RRIRHRPPRLPRPRPRPWNLPRP: -0.278; for RRIRARPPRLPRPRPRPDMHPRP: -0.00915.
Take RRIRYRPPRLPRPRPRPNQTPRP: the “shrunken log2 fold change” value was -0.0672.
The same measure for RRIRLRPPRLPRPRPRPVLKPRP: 0.0956; for RRIRGRPPRLPRPRPRPEALPRP: 1.33; for RRIRGRPPRLPRPRPRPVNWPRP: 0.302.
As for RRIRWRPPRLPRPRPRPDFDPRP, the “shrunken log2 fold change” value was determined as 0.0791.
As for RRIRWRPPRLPRPRPRPEWEPRP, the “shrunken log2 fold change” value was determined as 0.00016.
The same measure for RRIRRRPPRLPRPRPRPDFKPRP: 0.151.
The same measure for RRIRLRPPRLPRPRPRPQRPPRP: 0.265; for RRIRTRPPRLPRPRPRPVMLPRP: -0.157; for RRIRQRPPRLPRPRPRPQDIPRP: 0.0203.
On to RRIRCRPPRLPRPRPRPFTSPRP, for which the “shrunken log2 fold change” value is -0.152.
The same measure for RRIRGRPPRLPRPRPRPELTPRP: 2.02; for RRIRIRPPRLPRPRPRPNWRPRP: 0.0227.
The same measure for RRIRKRPPRLPRPRPRPMKFPRP: -0.0265; for RRIRHRPPRLPRPRPRPIVWPRP: -0.2.
For RRIRQRPPRLPRPRPRPLHPPRP, the “shrunken log2 fold change” value was -0.0917.
The same measure for RRIRHRPPRLPRPRPRPKTKPRP: 0.0995; for RRIRTRPPRLPRPRPRPKRIPRP: 0.0762; for RRIRRRPPRLPRPRPRPALMPRP: 0.195.
The same measure for RRIRQRPPRLPRPRPRPVLKPRP: -0.108.
The same measure for RRIRFRPPRLPRPRPRPQVWPRP: 0.135; for RRIRNRPPRLPRPRPRPRPHPRP: 0.226.
Take RRIRCRPPRLPRPRPRPFEYPRP: the “shrunken log2 fold change” value was -0.548.
The same measure for RRIRCRPPRLPRPRPRPYKIPRP: -0.785.
The same measure for RRIRTRPPRLPRPRPRPYAWPRP: -0.0721; for RRIRTRPPRLPRPRPRPMQHPRP: -0.112.
With RRIRTRPPRLPRPRPRPDKTPRP, the “shrunken log2 fold change” value is -0.108.
The same measure for RRIRRRPPRLPRPRPRPMSVPRP: -0.0792.
Consider RRIRIRPPRLPRPRPRPWRHPRP, for which the “shrunken log2 fold change” value is -0.083.
The same measure for RRIRQRPPRLPRPRPRPFEPPRP: -0.238.
The same measure for RRIRNRPPRLPRPRPRPPTEPRP: 0.389; for RRIRARPPRLPRPRPRPTVFPRP: 0.0832.
The same measure for RRIRNRPPRLPRPRPRPMIVPRP: -0.017; for RRIRHRPPRLPRPRPRPKYVPRP: -0.0624; for RRIRWRPPRLPRPRPRPVYDPRP: -0.15.
Consider RRIRGRPPRLPRPRPRPYIEPRP, for which the “shrunken log2 fold change” value was -0.114.
The same measure for RRIRGRPPRLPRPRPRPINGPRP: 0.1; for RRIRARPPRLPRPRPRPNWQPRP: -0.0264.
The same measure for RRIRSRPPRLPRPRPRPHNNPRP: -0.751; for RRIRCRPPRLPRPRPRPNWCPRP: -0.0555.
